Results on one molecule are retold here after publication PMC7865317, “Coupling of a Novel TIMP3 Peptide to Carboxypeptidase G2 for Pro-Drug Activation at the Tumour Site” (Molecules, 2021).

The assay deals with T1, VEGFR2-immunoglobulin Fc fusion protein (UniProt P35968 20-764).
T1 construct: VEGFR2 (vascular endothelial growth factor receptor 2); Probably the extracellular domain of VEGFR2 fused to an IgG Fc, as sold by R&D Systems (surmise); also called VEGFR2-Fc; source: bought: R&D Systems
Kind of assay: BLI; BLItz system; VEGFR2-Fc (5 uL at 250 ug/mL) loaded on protein A-coated probes for 300 s; CPG2 or CPG2-p700 in the drop holder, five runs at 600 nM to 10 uM; PBS. Conditions: both partners purified. For orientation: In BLI a coated tip is dipped into the sample, and binding shifts an interference pattern.

T1 sequence (P35968 20-764): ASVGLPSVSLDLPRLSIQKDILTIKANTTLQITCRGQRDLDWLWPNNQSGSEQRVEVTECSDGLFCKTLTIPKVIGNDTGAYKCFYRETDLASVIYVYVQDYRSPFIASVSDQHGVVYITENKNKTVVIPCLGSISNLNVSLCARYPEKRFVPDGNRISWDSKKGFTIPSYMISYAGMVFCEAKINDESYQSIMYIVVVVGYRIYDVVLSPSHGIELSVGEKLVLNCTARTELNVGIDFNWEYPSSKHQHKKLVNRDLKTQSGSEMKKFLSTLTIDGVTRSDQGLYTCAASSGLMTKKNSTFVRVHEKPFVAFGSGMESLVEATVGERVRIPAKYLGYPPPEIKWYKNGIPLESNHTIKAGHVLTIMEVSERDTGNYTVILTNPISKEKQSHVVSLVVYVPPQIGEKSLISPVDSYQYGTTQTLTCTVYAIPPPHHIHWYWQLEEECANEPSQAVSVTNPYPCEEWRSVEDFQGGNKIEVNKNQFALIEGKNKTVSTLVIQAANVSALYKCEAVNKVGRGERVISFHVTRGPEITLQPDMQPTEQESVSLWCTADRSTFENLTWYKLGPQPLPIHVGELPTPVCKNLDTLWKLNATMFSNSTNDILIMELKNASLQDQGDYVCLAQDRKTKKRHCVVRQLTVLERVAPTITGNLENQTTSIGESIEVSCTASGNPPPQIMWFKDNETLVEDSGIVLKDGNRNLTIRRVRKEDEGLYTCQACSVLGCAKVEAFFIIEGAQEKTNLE

B1: recombinant codon-optimised carboxypeptidase G2 (CPG2-His) (enzyme, Pseudomonas aeruginosa strain RS-16, UniProt P06621 23-415, looked up)
chain: ALAQKRDNVLFQAATDEQPAVIKTLEKLVNIETGTGDAEGIAAAGNFLEAELKNLGFTVTRSKSAGLVVGDNIVGKIKGRGGKNLLLMSHMDTVYLKGILAKAPFRVEGDKAYGPGIADDKGGNAVILHTLKLLKEYGVRDYGTITVLFNTDEEKGSFGSRDLIQEEAKLADYVLSFEPTSAGDEKLSLGTSGIAYVQVNITGKASHAGAAPELGVNALVEASDLVLRTMNIDDKAKNLRFNWTIAKAGNVSNIIPASATLNADVRYARNEDFDAAMKTLEERAQQKKLPEADVKVIVTRGRPAFNAGEGGKKLVDKAVAYYKEAGGTLGVEERTGGGTDAAYAALSGKPVIESLGLPGFGYHSDKAEYVDISAIPRRLYMAARLIMDLGAGK
notes: carboxypeptidase G2 (CPG2, glucarpidase), gene codon optimised for E. coli (Goda et al. 2009), approximately 1200 bp; Expected size 45 kDa; Cloned NdeI/NotI into pET28a, which may add an N-terminal His tag from the vector (surmise); construct in Supplementary Data S1; also called CPG2 alone; CPG2-only; source: E. coli BL21 (DE3), purified by Ni2+-NTA chromatography from pooled 2 M urea washes of …
What is called Kd is the free concentration of one partner at which half of the binding sites on the other are occupied at equilibrium, for simple one-to-one binding. In turn, B1 returned a Kd of 15 µM.
